The text below walks through data of patent publication US20110136733A1 (IPSEN PHARMA S A S, published 2011).

First the molecules themselves.
T1: human recombinant GIP receptor (human, UniProt P48546 22-466)
T1 construct: whole, on cells; Membranes of CHO-K1 cells expressing the receptor; also called hGIP receptor
T1 sequence (looked up): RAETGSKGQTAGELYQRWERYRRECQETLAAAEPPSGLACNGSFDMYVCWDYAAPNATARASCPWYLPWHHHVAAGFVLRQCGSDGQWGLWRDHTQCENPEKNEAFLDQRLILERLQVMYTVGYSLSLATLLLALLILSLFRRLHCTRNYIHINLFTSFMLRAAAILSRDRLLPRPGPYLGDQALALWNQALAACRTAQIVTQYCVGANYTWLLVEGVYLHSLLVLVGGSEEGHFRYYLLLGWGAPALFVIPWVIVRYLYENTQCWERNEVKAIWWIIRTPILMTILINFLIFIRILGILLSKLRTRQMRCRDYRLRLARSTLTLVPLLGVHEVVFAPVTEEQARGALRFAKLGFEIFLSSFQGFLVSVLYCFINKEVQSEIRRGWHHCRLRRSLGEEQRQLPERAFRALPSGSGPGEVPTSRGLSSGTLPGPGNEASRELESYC

Where no end group is shown, it is not given here. [ ]: non-standard residue; d: D form. The star is where a group is joined. Psu = N-propylsuccinimide on the Cys sulfur (from N-propylmaleimide), CCCN1C(=O)CC(*)C1=O; Ac6c = NC1(C(=O)O)CCCCC1; Nle = CCCC[C@H](N)C(=O)O; Aib = CC(C)(N)C(=O)O

For the experiment, the target named is T1, human recombinant GIP receptor. The experiment in a line: [125I]GIP competition, membranes of CHO-K1 cells expressing human GIP receptor.
On to “(Pro^3, A5c^11, Nle^14)hGIP(1-30)-OH (peptide)”, for which the inhibition constant Ki was 86.8 nM. The value for Y[Aib]EGTF[Ac6c]SDYSIA[Nle]DKIHQQDFVNWLLAQKGKKNDWKHNI[Aib]Q-OH [(Aib^2, 41, A6c^7, Nle^14)hGIP(1-42)-OH] was 1.33 nM.

Consider YXEGTFISDYXIAXDKIHQQDFVNWLLAQK (Aib at 2 and 11; Nle at 14; C-terminal amide) [(Aib^2, 11, Nle^14)hGIP(1-30)-NH2], for which the Ki was found to be 1.39 nM. YXPGTFISDYXIAXDKIHQQDFVNWLLAQK (Aib at 2; A5c at 11; A6c at 14; C-terminal amide) [(Aib^2, Pro^3, A5c^11, A6c^14)hGIP(1-30)-NH2]: the inhibition constant Ki was found to be 34.1 nM. Regarding YXEGTFXSDYSIAXDKIHQQDFVNWLLAQK (Aib at 2; A5c at 7; Nle at 14; C-terminal amide) [(Aib^2, A5c^7, Nle^14)hGIP(1-30)-NH2], the Ki was 4.9 nM. For YAEGTFISDYXIAMDKIHQQDFVNWLLAQKH (D-Ala at 2; A5c at 11; C-terminal amide, X stands for the non-natural residue) [(D-Ala^2, A5c^11, His^31)hGIP(1-31)-NH2], the Ki was 0.87 nM.

For YAPGTFISDYXIAXDKIHQQDFVNWLLAQK (A5c at 11; A6c at 14; C-terminal amide) [(Pro^3, A5c^11, A6c^14)hGIP(1-30)-NH2], the Ki is 871 nM. The value for YAEGTFISDYXIAXDKIHQQDFVNWLLAQK (D-Ala at 2; A5c at 11 and 14; C-terminal amide, X stands for the non-natural residue) [(D-Ala^2, A5c^11, 14)hGIP(1-30)-NH2] was 0.46 nM. Under YXEGTFXSDYSIAXDKIHQQDFVNWLLAQK (Aib at 2; A6c at 7; Nle at 14; C-terminal amide) [(Aib^2, A6c^7, Nle^14)hGIP(1-30)-NH2] stands 1.04 nM.

As for Y[Aib]EGTF[Ac6c]SDYSIA[Nle]DKIHQQDFVNWLL[Aib]QKGKKNDWKHNITQ-OH [(Aib^2, 28, A6c^7, Nle^14)hGIP(1-42)-OH], the Ki came to 1.22 nM. The value for YXEGTFISXYSIAMDKIHQQDFVNWLLAQK (Aib at 2 and 9; C-terminal amide) [(Aib^2, 9)hGIP(1-30)-NH2] was 5.38 nM. As to YXEGTFXSDYSIAXDKIHQQDFVNWLLAQK (A6c at 2 and 7; Nle at 14; C-terminal amide) [(A6c^2, 7, Nle^14)hGIP(1-30)-NH2], the inhibition constant Ki amounted to 47 nM. For YXEGTFIXDYSIAMDKIHQQDFVNWLLAQKGKKNDWKHNITQ (Aib at 2 and 8; C-terminal free acid) [(Aib^2, 8)hGIP(1-42)-OH], the inhibitory constant (Ki) turned out to be 16.2 nM. With YXEGTFISDYXIAMDKIHQQDFVNWLLAQKGKKNDWKHNITQ (Aib at 2 and 11; C-terminal free acid) [(Aib^2, 11)hGIP(1-42)-OH], the inhibition constant (Ki) was 1.2 nM.

For the molecule YXEGTFXSDYSIAXDKIHQQDFVNWXLAQKGKKNDWKHNITQ (Aib at 2; A6c at 7 and 26; Nle at 14; C-terminal free acid) [(Aib^2, A6c^7, 26, Nle^14)hGIP(1-42)-OH], the Ki was 2.54 nM. YXEGTFXSDYSIAXDKXHQQDFVNWLLAQKGKKNDWKHNITQ (Aib at 2; A6c at 7 and 17; Nle at 14; C-terminal free acid) [(Aib^2, A6c^7, 17, Nle^14)hGIP(1-42)-OH]: the Ki was 1.06 nM.

On to YXEGTFXSDYSIXXDKIHQQDFVNWLLAQKGKKNDWKHNITQ (Aib at 2 and 13; A6c at 7; Nle at 14; C-terminal free acid) [(Aib^2, 13, A6c^7, Nle^14)hGIP(1-42)-OH], for which the Ki came to 0.3 nM. For YXEGTFXSDYSIAXDKIHQQDFVNWLLAQKXKKNDWKHNITQ (Aib at 2 and 31; A6c at 7; Nle at 14; C-terminal free acid) [(Aib^2, 31, A6c^7, Nle^14)hGIP(1-42)-OH], the Ki is 2.06 nM. Under YXEGTFXSDYSIAXDKIHQQDFVNWLXAQKGKKNDWKHNITQ (Aib at 2; A6c at 7 and 27; Nle at 14; C-terminal free acid) [(Aib^2, A6c^7, 27, Nle^14)hGIP(1-42)-OH] stands 121 nM; under YXEGTFXSDYSIAMDKIHQQDFVNWLLAQKXKKNDWKHNITQ (Aib at 2 and 31; A6c at 7; C-terminal free acid) [(Aib^2, 31, A6c^7)hGIP(1-42)-OH], 6.96 nM. The value for YXEGTFISXYSIAMDKIHQQDFVNWLLAQKGKKNDWKHNITQ (Aib at 2 and 9; C-terminal free acid) [(Aib^2, 9)hGIP(1-42)-OH] was 2.66 nM; that for YGEGTFISDYXIAXDKIHQQDFVNWLLAQKGKKNDWKHNITQH (A5c at 11; Nle at 14; C-terminal free acid) [(Gly^2, A5c^11, Nle^14, His^43)hGIP(1-43)-OH] was 0.87 nM; that for YXEGTFISDYXIAXDKIHQQDFVNWLLAQKGKKNDWKHNITQH (Aib at 2; A5c at 11 and 14; C-terminal free acid) [(Aib^2, A5c^11,14, His^43)hGIP(1-43)-OH] was 0.55 nM. YAEGTFISDYXIAXDKIHQQDFVNWLLAQKGKKNDWKHNITQH (D-Ala at 2; A5c at 11; Nle at 14; C-terminal free acid, X stands for the non-natural residue) [(D-Ala^2, A5c^11, Nle^14, His^43)hGIP(1-43)-OH]: the Ki stood at 0.66 nM. As for YXEGTFISDYSXAMDKIHQQDFVNWLLAQK (Aib at 2 and 12; C-terminal amide) [(Aib^2, 12)hGIP(1-30)-NH2], the Ki was 1.84 nM. The value for Y[Aib]EGTF[Ac6c]SDYSIA[Nle]DKIHQQDFVNWLLAQKGKKNDWKHNI[Ac6c]Q-OH [(Aib^2, A6c^7, 41, Nle^14)hGIP(1-42)-OH] was 1.17 nM; that for YXEGTFISDYXIAMDKIHQQDFVNWLLAQK (Aib at 2 and 11; C-terminal amide) [(Aib^2, 11)hGIP(1-30)-NH2] was 0.37 nM. On to YXPGTFISDYXIAMDKIHQQDFVNWLLAQK (Aib at 2; A5c at 11; C-terminal amide) [(Aib^2, Pro^3, A5c^11)hGIP(1-30)-NH2], for which the Ki was found to be 216 nM. On to YXEGTFISDYXIAXDKIHQQDFVNWLLAQK (Aib at 2 and 11; A6c at 14; C-terminal amide) [(Aib^2, 11, A6c^14)hGIP(1-30)-NH2], for which the inhibitory constant (Ki) came out at 0.73 nM. Regarding YXEGTFXSDYSIAXDKIHQQDFVNWLLAQK (Aib at 2; A5c at 7 and 14; C-terminal amide) [(Aib^2, A5c^7, 14)hGIP(1-30)-NH2], the inhibition constant (Ki) came out at 2.32 nM.

Regarding Y[Aib]EGTF[Ac6c]SDYSIA[Nle]DKIHQQDFVNWLLAQKGKKNDWKHN[Ac6c]TQ-OH [(Aib^2, A6c^7, 40, Nle^14)hGIP(1-42)-OH], the Ki was 1.09 nM. As to YXEGTFXSDYSIAMDKIHQQDFVNWLLAQK (Aib at 2 and 7; C-terminal amide) [(Aib^2, 7)hGIP(1-30)-NH2], the Ki amounted to 0.53 nM. Turning to Y[Aib]EGTF[Aib]SDYSIAMDKIHQQDFVNWLLAQKGKKNDWKHNITQ-OH [(Aib^2, 7)hGIP(1-42)-OH], the Ki was found to be 0.75 nM. The value for Y[Aib]EGTF[Ac6c]SDYSIAMDKIHQQDFVNWLLAQKGKKC(Psu)DWKHNITQ-OH [[Aib^2, A6c^7, Cys(Psu)^34]hGIP(1-42)-OH] was 356 nM. The value for Y[Aib]EGTF[Ac6c]SDYSIAMDKIHQQDFVNWLLAQKC(Psu)KKNDWKHNITQ-OH [[Aib^2, A6c^7, Cys(Psu)^31]hGIP(1-42)-OH] was 75.8 nM; that for Y[Aib]EGTF[Ac6c]SDYSIAMDKIHQQDFVNWLLAQKGKC(Psu)NDWKHNITQ-OH [[Aib^2, A6c^7, Cys(Psu)^33]hGIP(1-42)-OH] was 1.51 nM; that for Y[Aib]EGTF[Ac6c]SDYSIAMDKIHQQDFVNWLLAQKGKKNDC(Psu)KHNITQ-OH [[Aib^2, A6c^7, Cys(Psu)^36]hGIP(1-42)-OH] was 635 nM. Under Y[Aib]EGTF[Ac6c]SDYSIAMDKIHQQDFVNWLLAQKGKKNDWC(Psu)HNITQ-OH [[Aib^2, A6c^7, Cys(Psu)^37]hGIP(1-42)-OH] stands 22.7 nM. In the case of Y[Aib]EGTF[Ac6c]SDYSIAMDKIHQQDFVNWLLAQKGC(Psu)KNDWKHNITQ-OH [[Aib^2, A6c^7, Cys(Psu)^32]hGIP(1-42)-OH], the Ki amounted to 2.59 nM. On to Y[Aib]EGTF[Ac6c]SDYSIAMDKIHQQDFVNWLLAQKGKKNC(Psu)WKHNITQ-OH [[Aib^2, A6c^7, Cys(Psu)^35]hGIP(1-42)-OH], for which the inhibition constant Ki came out at 288 nM. For the molecule Y[Aib]EGTF[Ac6c]SDYSIAMDKIHQQDFVNWLLAQKGKKNDWKHNI[Aib]Q-OH [(Aib^2, 41, A6c^7)hGIP(1-42)-OH], the Ki was 0.87 nM.

For the molecule YXEGXFISDYSIAMDKIHQQDFVNWLLAQK (Aib at 2; A5c at 5; C-terminal amide) [(Aib^2, A5c^5)hGIP(1-30)-NH2], the inhibition constant (Ki) is 2.05 nM. The value for YXEGXFISDYSIAMDKIHQQDFVNWLLAQK (Aib at 2 and 5; C-terminal amide) [(Aib^2, 5)hGIP(1-30)-NH2] was 3.33 nM; that for YXEXTFISDYSIAMDKIHQQDFVNWLLAQK (Aib at 2 and 4; C-terminal amide) [(Aib^2, 4)hGIP(1-30)-NH2] was 107 nM. Under YXEGTFISDYSXAMDKIHQQDFVNWLLAQK (Aib at 2; A5c at 12; C-terminal amide) [(Aib^2, A5c^12)hGIP(1-30)-NH2] stands 0.98 nM. Turning to Y[Aib]E[Aib]TFISDYSIAMDKIHQQDFVNWLLAQKGKKNDWKHNITQ-OH [(Aib^2, 4)hGIP(1-42)-OH], the Ki worked out at 80.1 nM. The value for YXEGTFXSDYSIAXDKIHQQDFVNWLLAQK (A5c at 2 and 7; Nle at 14; C-terminal amide) [(A5c^2, 7, Nle^14)hGIP(1-30)-NH2] was 25.8 nM.

For the molecule YXEGTFXSDYSIAMDKIHQQDFVNWLLAQK (Aib at 2; A5c at 7; C-terminal amide) [(Aib^2, A5c^7)hGIP(1-30)-NH2], the inhibition constant (Ki) is 0.27 nM. Consider YXPGTFXSDYSIAMDKIHQQDFVNWLLAQK (Aib at 2; A6c at 7; C-terminal amide) [(Aib^2, Pro^3, A6c^7)hGIP(1-30)-NH2], for which the inhibition constant Ki worked out at 333 nM. For YXEGTFIXDYSIAMDKIHQQDFVNWLLAQK (Aib at 2 and 8; C-terminal amide) [(Aib^2, 8)hGIP(1-30)-NH2], the Ki was 15.9 nM.
